Consider one molecule from US20260125454A1 (SHANGHAI JUNSHI BIOSCIENCES, published 2026).

Bridges are numbered along the chain shown (N, C = ends). Where no end group is shown, it is not given here. The star is where a group is joined. Biotin = O=C1N[C@H]2[C@H](CS[C@H]2CCCCC(=O)*)N1

One experiment concerns the target T1, hCGRP(13-24) (human).
T1 construct: also called polypeptide 13-24
T1 peptide: Biotin-GGGGGAGLLSRSGGVVK
Nature of the experiment: BLI (Octet), biotin-peptide on SA probe. On the procedure: (§1) The kinetic parameters of C245 Fab (Fab monomer fragments derived from antibody C245) binding to six synthetic human CGRP alpha polypeptide fragments (polypeptide 1-13, polypeptide 1-19, polypeptide 1-37, polypeptide 8-19, polypeptide 8-26, and polypeptide 13-24) were determined on an Octet RBD 96e system. Human CGRP synthetic polypeptide fragments were immobilized on the surfaces of SA bioprobes (Sartorius, Cat. No. 18-5019) at the following concentrations: 46.5 nM for hCGRP (1-13), 8.5 nM for CGRP (1-19), 15.5 nM for hCGRP (1-37), 8.5 nM for hCGRP (8-19), 15.5 nM for hCGRP (8-26), and 46.5 nM for hCGRP (13-24). The immobilized synthetic human CGRP polypeptide fragments were bound to 45 nM of C245 Fab and the binding dissociation curves were fitted using analytical software.

Experiment [1] deals with T2, hCGRP(1-13) (human, disulfide 7-12).
T2 construct: also called polypeptide 1-13
T2 peptide: Biotin-GGGGGACDTATCVTHRLA
Nature of the experiment: BLI (Octet), biotin-peptide on SA probe, 45 nM Fab. As to the method: as §1
(§2) The kinetic parameters of hu224 Fab (Fab monomer fragments derived from humanized antibody hu224) binding to four synthetic human CGRP alpha polypeptide fragments (polypeptide 1-13, polypeptide 1-19, polypeptide 1-37, and polypeptide 8-19) were determined on an Octet RBD 96e system. Human CGRP synthetic polypeptide fragments were immobilized on the surfaces of SA bioprobes (Sartorius, Cat. No. 18-5019) at the following concentrations: 8.5 nM for CGRP (1-19), 15.5 nM for hCGRP (1-37), 10 nM for hCGRP (8-19), and 15.5 nM for hCGRP (8-26). The immobilized synthetic human CGRP polypeptide fragments were bound to 45 nM of hu224 Fab and the binding dissociation curves were fitted using analytical software.
In general terms: Biolayer interferometry detects binding as a change in optical thickness at a sensor tip.

For the next experiment, the target named is T3, hCGRP(1-37) (human, N-terminal biotin; C-terminal phenylalanine amide (F-NH2); CYS residues at positions 7 and 12 theoretically form 1 intrachain disulfide bond).
T3 construct: also called polypeptide 1-37; full-length hCGRP (1-37) polypeptide
T3 peptide: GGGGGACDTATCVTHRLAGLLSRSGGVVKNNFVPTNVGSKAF
The experiment in a line: BLI (Octet), biotin-peptide on SA probe, 45 nM Fab. On the procedure: as §1, §2

The target in another experiment is T4, hCGRP(8-19) (human).
T4 construct: also called polypeptide 8-19
T4 peptide: Biotin-GGGGGVTHRLAGLLSRS
Nature of the experiment: BLI (Octet), biotin-peptide on SA probe, 45 nM Fab. As to the method: as §1, §2

The target in another experiment is T5, hCGRP(1-19) (human, N-terminal biotin; CYS residues at positions 7 and 12 theoretically form 1 intrachain disulfide bond).
T5 construct: also called polypeptide 1-19
T5 peptide: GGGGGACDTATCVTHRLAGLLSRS
The experiment in a line: BLI (Octet), biotin-peptide on SA probe, 45 nM Fab. On the procedure: as §1, §2

The next experiment deals with T6, hCGRP(8-26) (human, N-terminal biotin).
T6 construct: also called polypeptide 8-26
T6 peptide: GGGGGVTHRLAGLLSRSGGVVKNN
The experiment in a line: BLI (Octet), biotin-peptide on SA probe, 45 nM Fab. As to the method:
as §1, §2

Experiment [2] concerns the target T2, hCGRP(1-13). The experiment in a line: BLI (Octet); hCGRP (1-13) against the fragments holding 8-19. On the procedure: as §1

B1: C245 Fab (Fab, V domains shown)
VH: EVQLQQSGPELVKPGASMKISCKASGYSFTGYTMNWVKQSHGNNLEWIGLINPYIGNTHYNQKFKDKATFTVDRSSSTAYMALLSLTSEDSAVYYCARELDSGFDYWGQGTTLTVSS
VL: DVLMTQTPLSLPVSLGDQASLSCRSSQNIVHSNGDTYLEWYLQKPGQSPKLLIYKVSNRFSGVPDRFSGSGSGTDFTLKISRVEAEDLGVYYCYQGSHVPWTFGGGTKLEIK
notes: Fab of chimeric C245; also called Fab monomer fragments derived from antibody C245
As for B1, the binding result in the experiment with hCGRP(13-24) is “no binding (tested: 45 nM)”. Further, the equilibrium dissociation constant (Kd) (usually the constant that tells how readily two partners part at equilibrium) with hCGRP(1-13) [1] stood at 24.4 nM; with hCGRP(1-37), 0.249 nM; in the experiment with hCGRP(8-19), 0.252 nM; with hCGRP(1-19) it was 0.0721 nM; with hCGRP(8-26), 0.952 nM. Moreover, the koff (usually the rate constant with which the complex falls apart) with hCGRP(1-13) [1] came out at 0.0172 s⁻¹; with hCGRP(1-37), 6.95e-05 s⁻¹; with hCGRP(8-19), 9.32e-05 s⁻¹; with hCGRP(1-19) it was 2.58e-05 s⁻¹; in the experiment with hCGRP(8-26), 0.000316 s⁻¹. The kon (in general, a measure of how fast the partners come together) with hCGRP(1-13) [1] came out at 704000 M⁻¹ s⁻¹; with hCGRP(1-37), 280000 M⁻¹ s⁻¹; with hCGRP(8-19) it was 360000 M⁻¹ s⁻¹; in the experiment with hCGRP(1-19) it was 357000 M⁻¹ s⁻¹; in the experiment with hCGRP(8-26), 332000 M⁻¹ s⁻¹. The “fold decrease in affinity” value with hCGRP(1-13) [2] was 100 fold.
